Assay: soluble on expression in E. coli; label from the status in PepcDB or PDB records

Soluble on expression in E. coli, not soluble:
MGSDKIHHHHHHMAILTITKQFGSGGGEIGSAVANLLGYEYIPLKRVFEEAGQAGNRIKKLADEVSKSVPGLWERTDWSFLAFVAFSQSTILNYALQNNIVVMTRGGNMLLKSIPHALRILVTAPFDVRVRRIMEREEISEEIAVMMAKKADREMAVTIQQIYGTNWMDPTEYDQVIDTSKQNWNEIARSLKDSLMAKEKDFTAEAQKILNMKALATYIKVKIMTSPAFITPTLEVEMKGDILVISGVVRNPDQHKRIEEEVKKLAGDRYVEFHIHYRGSWPFRGI, MGSDKIHHHHHHMAINTTPLSESSKNNPDKQNNFVIALAGNPNVGKSTVFNRLTGLKQHTGNWPGKTVIKAEGTFSHRNRHYTLVDLPGTYSLHASSSDEEVARNFICFSRPDITLVVCDATCLERNLNLVLQILEITDRVLVCVNLLDEAERKGIQVDIAMLARQLGIPVVGTAARSGRGLESLKNVLDDMLAGKIAIQPRQLVYDPELEASINRIEKRLAPYLPAWINSRWVTLRVLERDFSILEHISNHKNNDFPRQVLKEEVALCLR, MGSDKIHHHHHHMAKKAKVQFECQSCGYVSPKYLGRCPNCGQWNSMVEEVIQDTSDRRARVSLTGKKTQPQRLSEVIPKKEPRVKTELVELNRVLGGGVVPGSLVLIGGDPGIGKSTLLLQVSQQLAATGGTVLYVSGEESAEQIKLRAERLGTVNETFYLYAETDMHEISRAIEKLEPDYVIIDSIQTMTQPDVTSVAGSVSQVRETTAELLKLAKTNGIAIFIVGHVTKEGSIAGPRMLEHMVDTVLYFEGDKHHTFRILRAVKNRFGSTNEIGIFEMQTHGLVEVMNPSQVFLEERLEGATGSSIVVAMEGSRPILVEIQALVTPTMFGNAKRTTTGLDFNRVSLIMAVLEKRAGLLLQNQDAYLKAAGGVKINEPAIDLALAISIASSYKEKGTSSSECFIGEIGLTGEIRRVNSIEQRVREAQKLGFTKVYVPKNNLGGWEAPEGIEIIGVSTIGETLRKVFK, MGSDKIHHHHHHMAKSDLIVGLDIGTTKICCVVGEPTEEGIDIVGIGTSPSTGLRKGVVVNIEQTVQSIKKALEEAELMAGCEIRSVYAGIAGSHIKGANSDGVIAVKGGEVAPRDVERVLDAAKALNIPMDREVIHILPQEYIVDEQRGIADPLGMAGVRLEVKVHIVTGAVASAQNIVRSCHRSGLDVSDIVLEALASSKAVLTEEEREIGVALVDLGGGTTDIAVFANDSIKHTGVLALGGQNLTNDIAFGLRTPMASAEKIKIKYGCAMAEMVRDDEGIEVASVGDREPRRLSRQVLAEICEPRMEEILSLVDQELVRYGFKNMIGAGVVLTGGTALIEGCQELGEQIFNLPTRIGYPRNVGGLKDVVNSPKFATAVGLLCYGAEKEGLELKFRIRDGNMFNRVLSRMRKWFSDIS, MGSDKIHHHHHHMAKVFLKRMNRRISGGHLWIFYNEILKVEGEYENGSVVDVFRPDGSFFGKGYINDNSKIRVRILTWKNEVIDRNFIKNRIESALKRKKKLVKETTAFRVVHSEGDFLPGLIVDLFGDYLVFQITTLGMEKMKDWILDSLVEIFKPKGIYEKSEGTFREKEGLDNREEWVYGKGPELIEFEMNGFKFLADTRGQKTGFFLDQRENARMVMDLAEGKVCLDVFSYTGNFAVHLLKGGAKHVTLVDYSERALEVAREILKLNGFDSSRYDLLPGNAFDILKSFDREGRKYDLVVLDPPSFAKSSSNLESARRGYKEINLRAMRILKKPGVLVTSSCTQIVSEELFREILFDASFDTKTSLTVLRRGGQPPDHPVLMNVPETQYLKFYILQVDKR, MGSDKIHHHHHHMALPTQLVYPGFEKIPRFWDNEQQSQVARVDPGEYYYSCQDEFIYTRLGSCVAACIWDPLMGIGGLNHFLLPEKVLHEDWHQLTSYSCRYGNWAMEQLINGILSAGGLKSRLKAKIFGGATLGRISVLNVGQSNIAFVREYLALEGIPVMSEDLGGPWPRKVLFHPQSGRVRLKRLEMTGMAQIEREEEAYLNDVAEHAKVPEPGSIELF, MGSDKIHHHHHHMALYPLPALVEQLMTQPIIFIGGKGGVGKTTTAAALASYYASQGKKTLIVSTDPAHSLGDVLKVPLKNQKTVVTPYLDAIELNPDLIVDEHFAQVERTITSYANPDMMPKIREHLRLSKSAPGAQEAAMLESMCQHLVAAADAGYEHIIFDTAPTGHTLRLLVLPEMMGAWTDGLLAQQRRQAKLRSVANHLGSHEQANNNKNDLANPFVERKSDRWEQAVSVLEKRKQLFRQAGLLLHDRRKTAIVLVMTADVLPLAETKRAIEQLEESNLIPAAIVINQLITQTQSDAFWHHRAERQQQLMQDIEKNFTNYPLYPIYLQQTDVRGTDALSALVSPVS, MGSDKIHHHHHHMANTSSDWAGAPQNASADGEFVRDTNYIDDRIVADVPAGSEPIAQEDGTFHWPVEAGRYRLVAARACPWAHRTVITRRLLGLENVISLGLTGPTHDVRSWTFDLDPNHLDPVLQIPRLQDAYFNRFPDYPRGITVPALVEESSKKVVTNDYPSITIDFNLEWKQFHREGAPNLYPAELREEMAPVMKRIFTEVNNGVYRTGFAGSQEAHNEAYKRLWVALDWLEDRLSTRRYLMGDHITEADIRLYPTLVRFDAVYHGHFKCGRNKITEMPNLWGYLRDLFQTPGFGDTTDFTEIKQHYYITHAEINPTRIVPVGPDLSGFATPHGREKLGGSPFAEGVTLPGPIPAGEEVKNPEPFQK, MGSDKIHHHHHHMANVTPEIVKALFTGFGKNFKDGLAKAPSQYTAIATVIKSTTASNTYAWLGQMPKLTEWIGKRAITAIQSHGYAIVNKDWASGVEIKRTDIEDDNIGVYSPLVEELGRSAGEQPDELVFGALKGGFTTECYDKQYFFDTDHPVGANPDGTSPTSVSNITDDGTSVTADGAWYLLDCSRALKPLIFQQRKPATPAQMTDANAQKVFEDNVYTRCNVGYGFWQMAHAVKGKLNAENLWKAIKAMRAVHSDGGHKLGIKPTHIVVPTSLQEEAVKLLERELRVEDGAAVDNEFKNMKLTLIVADYL, MGSDKIHHHHHHMAPLRIRYQTHEFGVLDIHIRTLRDNQEFEDINGEAEKLGISSATWPLFGIVWPSEQVLSHHMLDYPIEGKRILEVGCGIGLASLVLNHRLADITATDYHPETGSFLSQNVALNKGRTIPFVRTGWADETSKLGLFDLIIGSDLLYEQEHADLLSQFIEQHAKPICDVILVDPGRGNHAKFSKRMVTLGYEHSQHKPIHTEFLLAPFGGQILSYSRTKS, MGSDKIHHHHHHMAQNIYDQPDFFAGYSQLGRSIEGLDGAAEWPALRAMLPEVGGLRIVDLGCGFGWFCRWAHEHGASYVLGLDLSEKMLARARAAGPDTGITYERADLDKLHLPQDSFDLAYSSLALHYVEDVARLFRTVHQALSPGGHFVFSTEHPIYMAPARPGWAIDAEGRRTWPIDRYLVEGPRKTDWLAKGVVKHHRTVGTTLNALIRSGFAIEHVEEFCPTDAQITARPELAEELDRPMFLLVSARR, MGSDKIHHHHHHMAQVLWIIQIISKGLVRTLRFKAHILRMILLGSLGVAIHVSVVNAAVTDNSLPQESIPLVQGFIDAVKAHDRQAIADYMAYPIKRTNPIPAINTPEELLKRFDQVFDPEILETIAQSQVEADWQAMGWRGIMLGSGTIWMDFDGKITAVNYQTPAETKLKAELIANQKTGLHESVSQFVSPELAWQTAKFTIRVDNMGNSQYRYASWAKGKPLSEKPDLVLNQGKLVFDGSGGNHSFQFTSGPYLYVCDVIVLGTSDSPIGELVVFKHDRVLLREPAIKAE, MGSDKIHHHHHHMARGYIAKKLLVEGKDDLRVIPELIEKNGIVWGNNKKEAIVTIEDYGGYTNINSDLVSTELQASGLTHLGLMVDADDKPQTRWQSIREACLDSILDIPEEIPTTGLIHTTNTGIKFGVWIMPDNLMQGMLETFLAYMIPDESEPLWMYAQEVVAEAKIKGASFIDARIDKAKIHTWLAWQEEPGR, MGSDKIHHHHHHMARKKNTSDQSRSQAANTPIAGTYEGEYSVIELEADSYTTDGWLISINGVPSSHIVLGQPQALEFEYMRWIATGARAFIDAHQDASKLRITHLGGGACTMARYFADVYPQSRNTVVELDAELARLSREWFDIPRAPRVKIRVDDARMVAESFTPASRDVIIRDVFAGAITPQNFTTVEFFEHCHRGLAPGGLYVANCGDHSDLRGAKSELAGMMEVFEHVAVIADPPMLKGRRYGNIILMGSDTEFFSSNSTEASAITRELLGGGVPAQYKDESWVRKFASGAQARHDGVSTLQMPSDTPQHPAETPEHSNTQP, MGSDKIHHHHHHMASLQIAHNTRIVKEAARIAGFDYCGISAARFLEEEAPRLESWLNRNQHGTMSWMENYFDKRLDPRKLVDGAKSVVSVLLNYTPAPEDEILSTGETKISRYAYGKDYHYVLKDKFKQMLQHITEQIGEVNGRAFVDSAPVMDKAWAKQGGLGWVGKHSNIITKDSGSYFFIGELIIDLELDADGPIKDYCGTCTRCIDACPTNAITEPYQVDGSKCISYLTIELKEQIPSEFKEQMQGWAFGCDICQEVCPWNRFAQPINKNEFSPSEELKKYFEMPLKEITKEVFNILFKDSTIKRTKIEGLSRNLTFIKKET, MGSDKIHHHHHHMAVGTTKMAQMLDPEVLADMIDAEVGKAIRFAPLAEVDTTLEGQPGTTLTVPKWDYIGDAEDVAEGEAIPMTQLGFKKTTMTIKKAGKGVEITDEAILSGYGDPVGQAAKQIVEAIDHKVDADVLDALSKSTQTVEATATVDGVSKALDIFNDEDDAETVIVMNPADASTLRLDAAKEWLGATEVGANRVVSGVYGEVLGVQIVRSRKCPKGTAYMVRKGALRIMLKRNTMVETDRDITKAINQIVANKHYGVYLYKAEKAVKITLKDAAKK, MGSDKIHHHHHHMCPMQNYPYVITVSSEKGGVGKTTLATNLAIYLKALDENLPVTIFSFDNHFTVDRMFEIRGQRLTGSVADLLMESPPRDLIHTGQYGVGYIPSSASLNDLKGSIRGPMVLARLLAASRIPGVLIIDTRPDLDMLTQNALFAADRAIIPVKDMPSLENCRNIFALFEQRGLDRKSLSLIPCLVDERIKFDGPFNDQKTLLKAYAINRGYRCLDVYISKSPKVESLNTNPDGKIYPILTHAKWTEVHGQFAQLAQILINEYNATTEPRSLLFHKWLQTEESRKKEEFFARLSGIKSQCLLCGKPVSDDGDGRHSFYFEVSDGSAAGFFEEECFLTMLMTNIYNMDVSMVDDAPTVHLMRDSSRESAFVFRPASNGGAVEFHRFSLDGTLLIKKNYPLREYEGGLLRRERSRLYTLMTEALGTAGAGSSDRFILVHPVTRDNPQGILRDESYRGLTKLKQHIAAQIASS, MGSDKIHHHHHHMCRLLAYLGSPVSLEHLLYKPEHSLIVQSYKPREMTSGAVNADGFGVGWYHSQKDIEPFTYKNTLPIWNDINLLSLSRYIESKCVLAYVRSATSEQAVDFANCQPFKHQQQLFIHDGRIENFHKTLHRKIRSTLTQDFYEKINGNTDSEHIFALLLSQSQINKHRPPEYALRTTLLTLLEMAKRYQVEASINVIFSDGHRLIASRFATTSLAPSLYWVRDDPTFSNSVIIASEPLFIGNWNAFPENSIITVGADCEIQIEQI, MGSDKIHHHHHHMCRLLAYLGSPVSLEYLLYKPEHSLIVQSYQPREMTSGVVNADGFGVGWYHSQKDTEPFTYKNTLPIWNDINLPSLSRYVESKCILAYVRSATAGQALDFANCQPFHYKQSLFIHNGYIENFRKTLHRKLRSTLTPDFYEHINGSTDSEHIFALLLSQIQSNKHRSVESVLRNTLLMLWEMAKRHQVNASANVVFSDGHRLIASRFASSSSPPSLYWLKDDLTFPNSVIIASEPLFAGNWTACPENSIISVGEDCDIKIESI
